Here are results for one molecule from US20210130420A1, “RECOMBINANT BINDING PROTEINS TARGETING HER2 AND SERUM ALBUMIN, AND THEIR USES” (Molecular Partners AG, priority 2016, published 2021).

For one data set, the system named is RPS6KB1/S6 Kinase. The data set is described as follows: Phospho-proteome mass spectrometry of BT474 cells. To be noted: 100 nM, 18 hours. It is filed as cell-based, human. An excerpt:
(§1) Protein #21 was expressed and purified as described in Example 1. […] Cells were then subjected to a phospho-proteome mass-spectrometry analysis as described by Britton, D., et al. (Britton, D., Zen, Y., Quaglia, A., Selzer, S., Mitra, VI., Lössner, C., Jung, S., Bohm, G., Schmid, P., Prefot, P., Hoehle, C., Koncarevic, S., Gee, J., Nicholson, R., Ward, M., Castellano, L., Stebbing, J., Zucht, H. D., Sarker, D., Heaton, N., and Pike, I., 2014. PLOS One 9 (3), e90948).

The test system of another data set is mTOR. Kind of data set: Phospho-proteome mass spectrometry of BT474 cells. The class given is cell-based, human. The conditions noted are these: 100 nM, 18 hours.
Excerpt: as §1

A further data set deals with RAF. The data set is described as follows: Phospho-proteome mass spectrometry of BT474 cells. The class given is cell-based, human. The conditions noted are these: 100 nM, 18 hours.
Excerpt: as §1

The subject of another data set is AKT. Kind of data set: Phospho-proteome mass spectrometry of BT474 cells. It is filed as cell-based, human. To be noted: 100 nM, 18 hours.
Excerpt: as §1

The target in data set [1] is extracellular domains of HER3 (Homo sapiens, UniProt P21860). The data set is described as follows: Surface plasmon resonance interaction with HER3. The class given is binding.
The subject of data set [2] is SKBR-3, SKOV-3, NCI-N87, ZR-75-30, HCC1419, or MDA-MB175. The data set is described as follows: Proliferation inhibition on a variety of cancer cell-lines. The class given is cell-based.
Another data set relates to BT474 cells. The data set is described as follows: BT474 cell proliferation, BrdU-labeling. The class given is cell-based, human. To be noted: cellular assays of Example 6 and screening. The method, then:
Protein #21-His and Protein #23-His, were expressed and purified as described in Example 1. Effects of the recombinant binding proteins on BT474 cell proliferation were determined by measuring DNA synthesis using BrdU-labeling (BrdU, Cell Proliferation ELISA, Roche). Briefly, 10000 BT474 cells were seeded per well in a 96 well plate in 100 ul complete medium and incubated for 24 hours. Recombinant binding proteins or controls were added for an additional 72 hours. BrdU for cell labeling was added for the last 24 hours. Labeled (proliferating) cells were detected according to the manufactures protocol. The data were analyzed using the GraphPad prism software, plotting log [c] on the x-axis against OD450-602 nm on the y-axis. Data were fitted using a non-linear regression fit (log(antagonist) vs. response—Variable slope (four parameters)) deriving IC50 values.
Protein #21 and Protein #21-His were expressed and purified as described in Example 1. Standard BrdU cell proliferation assays were performed, well-known to the person skilled in the art. Briefly, effects on cell proliferation of Protein #21-His, other compounds, or Protein #21-His in combination with other compounds, were determined by measuring DNA synthesis using BrdU-labeling (BrdU, Cell Proliferation ELISA, Roche). Briefly, 10000 cells were seeded per well in a 96 well plate in 100 μl complete medium and incubated for 24 hours. Protein #21-His and/or compounds were added for an additional 72 hours. BrdU for cell labeling was added for the last 24 hours. Labeled (proliferating) cells were detected according to the manufactures protocol. The data were analyzed using the Graph Pad prism software (log [c] vs. OD450-602 nm plot). Data were fitted using a non-linear regression fit (log(antagonist) vs. response—variable slope (four parameters)).

The nature of data set [3]: Storage stability in PBS analysed by size-exclusion chromatography. To be noted: 10 mg/ml in PBS. It is filed as physicochemical. The protocol: A storage stability improvement is also observed, when testing the storage stability of Protein #21 and Protein #22 (recombinant binding proteins consisting of the amino acid sequences corresponding to SEQ ID NOs: 21 and 22, respectively). Protein #21 and Protein #22 are prepared as described in Example 1, samples are concentrated to 10 mg/ml in PBS and stored for 1 month at −80° C. in or at 40° C. in glass vials, followed by analysis on standard size-exclusion chromatography.
For orientation: In gel filtration, larger molecules generally elute earlier.

For another data set, the target named is HER2 (Homo sapiens, UniProt P04626). Kind of data set: Phosphorylation state ELISA, BT474 cells. It is filed as cell-based. Details: BT474 cells were treated for 18 hours with either Protein #21 (100 nM); host or cells: BT474. The conditions noted are these: 100 nM, 18 hours. For orientation: In an ELISA, binding on a coated surface is turned into a signal by an enzyme label.

For data set [4], the target named is extracellular domains of EGFR (Homo sapiens, UniProt P00533). Kind of data set: Surface plasmon resonance interaction with EGFR. The class given is binding. A general note: Surface plasmon resonance follows binding to a sensor surface in real time, without labels.
For the next data set, the system named is GXA3039. The data set is described as follows: Gastric cancer patient derived tumor xenograft mouse model GXA3039. It is filed as in vivo. To be noted: Protein #21 60 mg/kg, antibodies 10 mg/kg, every three days for 6 times. The protocol: Further, Protein #21 was expressed and purified as described in Example 1. […] All groups were dosed every three days for 6 times. Briefly, tumor fragments were obtained from xenografts in serial passage in nude mice. After removal from donor mice, tumors were cut into fragments (4-5 mm diameter) for subcutaneous implantation. Mice were randomized into groups when tumors reached a volume of approximately 100-120 mm^3. The day of randomization and treatment initiation is designated as day 0 in each experiment. Tumor growth was monitored by two-dimensional measurement with a caliper on the day of randomization and then twice weekly. Relative volumes of individual tumors (individual RTVs) for Day x were calculated by dividing the individual tumor volume on Day x (Tx) by the individual volume of the same tumor on Day 0 (TO) multiplied by 100%. Tumor inhibition for a particular day (T/C in %) was calculated from the ratio of the median RTV values of test versus control groups multiplied by 100%.

A further data set deals with human serum albumin (Homo sapiens, UniProt P02768). The data set is described as follows: Size exclusion chromatography coupled to static light scattering with human serum albumin. It is filed as binding. To be noted: 30 μM Protein #21, 60 μM human serum albumin, 1:2 mixture in PBS. The method, then: Protein #21 was expressed and purified as described in Example 1. Size exclusion chromatography coupled to static light scattering (Superdex 200 10/300GL (GE Healthcare), Agilent 1200 (Life Technologies), Wyatt Optilab Trex (RI) and MiniDawnTreos (MALS)) was performed using 30 μM Protein #21, 60 μM human serum albumin (CSL Behring 20% solution was used to purify the monomeric fraction of human serum albumin by size exclusion chromatography on a Superdex 200 26/60 column (GE Healthcare)), or a 1:2 mixture of the two, in PBS.

B1: Protein #21: SEQ ID NO: 21; HER2 binding domains (SEQ ID NOs: 16, 17) flanked by two serum albumin binding domains (SEQ ID NO: 14), SEQ ID NO: 9 linkers (protein)
chain: GSDLGKKLLEAARAGQDDEVRELLKAGADVNAKDYFSHTPLHLAARNGHLKIVEVLLKAGADVNAKDFAGKTPLHLAANEGHLEIVEVLLKAGADVNAQDIFGKTPADIAADAGHEDIAEVLQKAAGSPTPTPTTPTPTPTTPTPTPTGSDLGIKLLFAAAKGQDDEVRELLKAGADVNAKDFQGVTPLHIAAQSGHLEIVEVLLKAGADVNAKDVTGDTPLHLAAQHGHLEIVEVLLKAGADVNAQDERGWTPADLAADWGHEDIAEVLQKAAGSPTPTPTTPTPTPTTPTPTPTGSDLGKKLLEAARAGQDDEVRELLKAGADVNAKDEYGLTPLYLATAHGHLEIVEVLLKAGADVNAVDAIGFTPLHLAAFIGHLEIAEVLLKAGADVNAQDKFGKTPADIAAGAGNEDIAEVLQKAAGSPTPTPTTPTPTPTTPTPTPTGSDLGKKLLEAARAGQDDEVRELLKAGADVNAKDYFSHTPLHLAARNGHLKIVEVLLKAGADVNAKDFAGKTPLHLAANEGHLEIVEVLLKAGADVNAQDIFGKTPADIAADAGHEDIAEVLQKAA
modifications: Protein comprising four designed ankyrin repeat domains
Regarding B1, in the data set with RPS6KB1/S6 Kinase, the “RPS6KB1/S6Kinase S441/T444/S447 phosphorylation” value is listed as 0.63 fold change to PBS and the “RPS6KB1/S6Kinase T444/S447 phosphorylation” value is reported as 0.92 fold change to PBS. The “mTOR S2448/S2454 phosphorylation” value in the data set on mTOR is recorded as 0.79 fold change to PBS. Moreover, in the data set on RAF, the “RAF S642 phosphorylation” value is listed as 0.81 fold change to PBS and the “RAF T631/T638/T640/T641/S642 phosphorylation” value is recorded as 0.48 fold change to PBS. Besides, in the data set on AKT, the “AKT S124 phosphorylation” value was 0.99 fold change to PBS and the “AKT S129 phosphorylation” value is recorded as 0.93 fold change to PBS. Besides, in data set [1], the “interaction with extracellular domains of HER3” value was “does not interact”. Moreover, in data set [2], the “proliferation inhibition on cancer cell-lines” value is “strong proliferation inhibition”. Moreover, in the data set with BT474 cells, the cellular potency entry is recorded as “high cellular potency”. In addition, in [3] (1 month at 40° C.), the “monomeric species compared to Protein #22” value is recorded as “significantly more monomeric species”. Also, in data set [3] (1 month at −80° C.), the “elution profiles upon storage at −80° C.” value is given as “equivalent elution profiles”. In addition, the “HER2 Pan-Phospho-Tyrosine” value with HER2 is 0.04 fold change to PBS. The “interaction with extracellular domains of EGFR” value in [4] is on record as “does not interact”. Moreover, the “inhibition of tumor growth, first experiment” value in the data set with GXA3039 (GXA3039, FIG. 4C) is on record as “strong inhibition of tumor growth”. In addition, in the data set with GXA3039 (GXA3039, FIG. 4D), the “inhibition of tumor growth, second experiment” value is “strong inhibition of tumor growth”. Further, the “simultaneous binding of two serum albumin molecules” value in the data set with human serum albumin is “can bind two serum albumin molecules simultaneously”.
